Assay: soluble on expression in E. coli; label from the status in PepcDB or PDB records
For “MPLSWPPEQFAFALEQMPLTENNRRILQAFLDAPEQTLTAHSLAAAANVAGGWSAANLRIGELSRKFAPVLGSLPDAGDGDPHWWRYIASGRWDGGRFYWTLRPQLKDALLTLGWQSSESLDNEAEGVSAEEARTFVEGATRQIFVNAYERNAGARAACIAHFGTVCRVCETDLVAIYGEVARGYIQVHHLRSLAEVGRQYEVNPLTDLIPVCPNCHAMLHQRRPAYTPEELRAMLGRGQHLEHHHHHH”, the “soluble on expression in E. coli” value was “not soluble”.
For “TKDFTWDLSYNITWNHNEITKLTGGDDSDYYVEAGDKISRGNNTKVQAHKVGYAANSFYVYQQVYDENGKPIENMFVDRNGNGTIDSGDKYIYKKPAGDVLMGLTSKMQYKNFDFSFSLRASLNNYVYYDFLSNKANVSTSGLFSNNAYSNTSAEAVALGLSGQGDYMSDYFIHNASFLRCDNITLGYSFQNLWKTQTYKGVGGRVYATVQNPFIISKYKGLDPEVKSGIDANPYPRAMTFLLGLSLQF”, the “soluble on expression in E. coli” value was “not soluble”.
For “MDLTVEPNLHSLITSTTHKWIFVGGKGGVGKTTSSCSIAIQMALSQPNKQFLLISTDPAHNLSDAFGEKFGKDARKVTGMNNLSCMEIDPSAALKDMNDMAVSRANNNGSDGQGDDLGSLLQGGALADLTGSIPGIDEALSFMEVMKHIKRQEQGEGETFDTVIFDTAPTGHTLRFLQLPNTLSKLLEKFGEITNKLGPMLNSFMGAGNVDISGKLNELKANVETIRQQFTDPDLTTFVCVCISEFLSLYETERLIQELISYDMDVNSIIVNQLLFAENDQEHNCKRCQARWKMQKKYLDQIDELYEDFHVVKMPLCAGEIRGLNNLTKFSQFLNKEYNPITDGKVIYELEDKEGLVPRGSLEHHHHHH”, the “soluble on expression in E. coli” value was “soluble”.
For “MCPILWTRNGSHCYYFSMEKKDWNSSLKFCADKGSHLLTFPDNQGVKLFGEYLGQDFYWIGLRNIDGWRWEGGPALSLRILTNSLIQRCGAIHRNGLQASSCEVALQWICKKVLY”, the “soluble on expression in E. coli” value was “soluble”.
For “MAHHHHHHMRRSVIRTRKEFLERKQHERVHEAIHARKEQFRSAVETATPLPGHLKKDALALKKFTELDDAQTRNLTTTVDDEYANAGQEDPHVLVTTSRNASQKLLEFAKEVRLIVPNAVRMNRGNLSVHQLMDAARKENYTDVLVLQESQGVPDSLIVSHLPLGPTVTFTIHNLVARHDIDGVGTMSEQYPHLVFENFSTKLGIRIKDVLRYLFPVPKADASRVLTFDNENDFISFRHHTFKKEKGKKQVELTEVGPRFELTPYRIVLGTLEMDDAETEWVLQPYMNTAKKRRLL”, the “soluble on expression in E. coli” value was “soluble”.
In the case of “MSSHESLFDYEATLQACARGEKQALQRLYLQESARLLGVAQRLVRDSALAEDIVHDAFLKIWTHAASFDASRGSARGWIFSVTRHLALNTLRNTAREVRVEDDGSDDHHEQATLEGWQETGDAFDWRVNPGRMISCMEQLEPVRRNCIFHAYVDGYSHQEIAQKIGAPLGTVKAWIKRSLTALRECMG”, the “soluble on expression in E. coli” value is reported as “not soluble”.
With “MGSDKIHHHHHHMDTLFTINACKTFGCRNLGLPSAAEYHFPNFRLGYPALYCAACGSYPPLFNEREFRPWLAAYLTDHARRYGYFCPVCYQRDIIRYGRNPQGTQRLQCRHCKKVWTPKFPHIAPIEAPRRICSVPLIAPFQGNAAGQKLYFLLSFDAVRGNVIHLTSNFTPFAVGESLRYRWRGGQADREETDDIIQRISLTEMRFLQRSQFDEIQYGSAMQKRHARGNILRPVIAAHGHFKLLSQRFPEVKTHVIAHECFLRGAAIVAWAPLFRQRQGDLWYVEEEIRNPASPAPWQLLGKTHHGWWQNSWQRWTQEENQKMVCRLAGTVEENAFLPDLAASRRFTIWLKNRPAFAQSALYSAGRVTQIVASLVQEYNATLTAAAPGG” the “soluble on expression in E. coli” value was “not soluble”.
With “MDKSTPRRTYNLRSADRTTQNSPVSRQSLENHRNASVSLRKRSSTSSLQRIQSEFTFTDSATEERCSRKRRRTQQTHGLPFSSPDAINHQRAFHLDEHKVCSKLTTRLSIEVETSYGSFGKLPYDAVIHILTRTPYNLLSRMVMTSSCWNQTIGAYMRSGAFRRRWLLDIDIAPSSKPLDPFFDMGKLVRCLTINYEWKARLDCLKSFMTLAYESGALIAGLGKMIHAFTNRPDEDIVLEQIDDIVAMLLALVSGLKDDLSAVLFTPETDRELEELDNMPILREEMKLRKKTLNLFLNNGSSDPAHGVNKYFLSSLMKVFKTAHNALPTALFYLLFSPTTIQDDEEVIHWHRLSLLSVVTSEEAEELKPLSRAMCALIQCRNLKHVLPWSKNTIFNLMEEITTYPNPWSMSTFVALNVLEPELVPIGVVARMNRNHEDEAGDIICTMKMLLHRWDMDVYGVMESIIDTIKAVLKPYQRRILFDRCWDWHQRNIDEHRNQMGHFSDIRAEIESQIEVMPVLMKLL” the “soluble on expression in E. coli” value was “not soluble”.
In the case of “MGSDKIHHHHHHMSKTLSILVLHRVPFENVGYDQVIDHDLHQVTYLGLASPMSKLPKDLPCHKVVIEQLDLLVDSAVALTQEQGIEFDYIIGVSEYQLFDAALIRERLNIQGPKPHDVLRVRDKLVMKHQVQAAGLHVPRFFELAEVMTQELTGLQQLILKPKDGASSENVIKYADLEALRSAITSSATGIPVLDNDKNFKNFEVEEFVEGPILHLDGIVQGGVIDTFVASTYEGTCLAFAEGEALGSYQIQTEPRLMDWAQAVITALAIDSGAFHLEVIESGERLVFLEIGHRAGGANVVRTFELRTGINLHHANLATQLRLPIHRQEVNTHKSYGWFVFPGHHYDWDKCRLEGHEDIKIHHQMFEWNQLSNEQPLTKHITYQKKEVPAAGIIQGDDSIQVQNFMQRVLQYIQVQEAV”, the “soluble on expression in E. coli” value is reported as “not soluble”.
For “MGSDKIHHHHHHATTLLVSCSNQQTQTKAITVSDTTLLSAEEFSQKIKKEPNALILDVRTPEEFSEAHIANATNVNWKDNFASGITEVNKNQPVLVYCLSGGRSASASDYLRKNGYTQVYELQGGLLKWQASNFEVVADTVTAAQDSGMTLQQFEALLVTDKYVLIDFYATWCGPCKMMEPALEDIAATMSDKVIVVRIDVDKNEELSKHFEVESLPTVQIYKNKKLVWEDIGYKTKKQLVSQLK”, the “soluble on expression in E. coli” value was “not soluble”.
With “MTTAITPDKKKLVSPKPTKTTSDKSKTKPRRSSKTSKKRKSKKGLFGCCAKKRKTKRSKKSAKRTKRSAPKKAPKKAPMKAPSKPAAKLVPQQAQASLQKPIQSGIVDADATVKTVVPRPPTPIPPTGVKPEPAPRSEPLYQPRSVSSTTPRTSATTGTTEQMVTAPATLPPPSAESKHLPQDPPGDASSPRVQRQYTAEKYSKEDQDDDDQKDLRKSVAYPSHKFFMTQYVKDECRVRRWVYEDSVPLMMESNMKHMLRMASNRIAACQSDKARRCDMMKDLNEMTEILDGNF” the “soluble on expression in E. coli” value was “not soluble”.
With “MNQHLLGNPKLTVTHVNEVKAGINHIVVDSVQYGNQEMIMEKDGTVEMRDGEKLYINIFRPNKDGKFPVVMSADTYGKDNKPKITNMGALWPTLGTIPTSSFTPEESPDPGFWVPNDYVVVKVALRGSDKSKGVLSPWSKREAEDYYEVIEWAANQSWSNGNIGTNGVSYLAVTQWWVASLNPPHLKAMIPWEGLNDMYREVAFHGGIPDTGFYRFWTQGIFARWTDNPNIEDLIQAQQEHPLFDDFWKQRQVPLSQIKTPLLTCASWSTQGLHNRGSFEGFKQAASEEKWLYVHGRKEWESYYARENLERQKSFFDFYLKEENNDWKDTPHVIYEVRDQFYKGEFKSASAFPLPNAEYTPLYLNAENHTLNHAKISSAHVAQYDSEDKQQDVSFKYTFDKDTELVGNMNLKLWVSTKDSDDMDLFAGIKKLDRRGNEVNFPDFNHIENGQVATGWLRVSHRELDQEKSSIAQPWHKHETELKLSQDEIVPVEIELLPSGTLFKQGETLEVVVKGSEIVIGNSTPGMKTRYEHEETVNKGMHMIYTGGKYDSQLIIPIVN” the “soluble on expression in E. coli” value was “soluble”.
For “SDWKEVLRRRLATPNTCPNKKKSEQELKDEEMDLFTKYYSEWKGGRKNTNEFYKTIPRFYYRLPAEDEVLLQKLREESRAVFLQRKSRELLDNEELQNLWFLLDKHQTPPMIGEEAMINYENFLKVGEKAGAKCKQFFTAKVFAKLLHTDSYGRISIMQFFNYVMRKVWLHQTRIGLSLYDVAGQGYLRESDLENYILELIPTLPQLDGLEKSFYSFYVCTAVRKFFFFLDPLRTGKIKIQDILACSFLDDLLELRDEELSKESQETNWFSAPSALRVYGQYLNLDKDHNGMLSKEELSRYGTATMTNVFLDRVFQECLTYDGEMDYKTYLDFVLALENRKEPAALQYIFKLLDIENKGYLNVFSLNYFFRAIQELMKIHGQDPVSFQDVKDEIFDMVKPKDPLKISLQDLINSNQGDTVTTILIDLNGFWTYENREALVANDSENSADLDDT”, the “soluble on expression in E. coli” value was “soluble”.
In the case of “MGSDKIHHHHHHMDITLFKTLLKVAAIGNISKAAAVLCVTQSAVSRRLKQLEDHIGKPLLIRSGNAVRPTEAGQFVLAKAQQIVDLESQIVDKLNVNEPKQRISLCCTPAFGIGRLPSIVSAFMADNAESADLNFVFNMPEQALEGIENGRFDLAIIEHCDDLNMAGHRGYPLPDDEMIFLSAPSLGIDSPAPSIEQLFDKRLYLKNEQGCARRFLDKNLALTGHSITEFANIIYFDDLQFIMREVLAGKGISFVPIGLVVDELCRHTLMAHRIADFDHFYPRTIILGRRAPSPLLLSFINTIYIAFGMPCPSIFHTEAPFPPEGFPESL”, the “soluble on expression in E. coli” value is reported as “not soluble”.
With “MDITPALTEMELDHKPTCETVPGLPQKKHYRQRAHSNPHSDHDIEYPLTPNHMDWTKYYGDYTKGRQVDFADIGCGYGGLLMRLSPKYPDNLMIGMEIRVKVSDYVNEKIQALRKHHAEAGHYRNVAVLRSNAMKYMPNYFHKGQLSKMFFLFPDPHFKNKKHKWRIITPTLLSEYAYVLREGGIIYTITDVKDLHEWMVKHLSEHPLFERLTEEEMKKDPIVEMLFESTEEGQKVTRNDGGKWPAIFRRLPNPAL” the “soluble on expression in E. coli” value was “not soluble”.
For “MSADHDHDHDHDHDHKPAPMVEEVSDFEILEMAVRELAIEKGLFSAEDHRVWKDYVHTLGPLPAARLVAKAWLDPEYKKLCIEDGVEASKAVGVNWVTSPPTQFGTPSDYCNLRVLADSPTLKHVVVCTLCSCYPRPILGQSPEWYRSPNYRRRLVRWPRQVLAEFGLQLPSEVQIRVADSNQKTRYIVMPVRPEGTDGWTEDQLAEIVTRDCLIGVAVPKPGITVNAKRPVLKANRPVHHDH”, the “soluble on expression in E. coli” value was “soluble”.
For “MSLGAKKEGFQTMVITDNKRENFYKNFSFIDNIYAYASLDEAVSIINGIKDYGILIPHGSLVEYLGKERVDKIETKIFGNKKIFEWEADQKKKMELLRKSNIKIPEIFERPEDVDRLVIVKLNGAKGGKGYFLARNKSEVKEGIQKLIESKMIRDENEVIIQEYVVGVPMYFQFFYSDIINRTEIFGIDIRYETNIDGLRRLPFEYMKELKINPTFVVVGNIPAVARESLLPVALEYANNFVRTTKELVPPGMIGPFCLESIITDNSDIVVFEFSGRIVAGTNLYVNGSPYSWLYWDEPMSIGRRIAREIRVANEKDKLSLVVSEGHHHHHH”, the “soluble on expression in E. coli” value was “not soluble”.
With “MDDHAFAAPAPAAPTAPALPMAVLAELTHRCPLQCPYCSNPVELEAASRELSTEDWQRVIGELAALGVLQIHFSGGEPLVRRDLVALVAHADRAGLYTNLITSAVMFTRAKVAELAEAGLAHVQVSLQGASAPVAERIGGFRGGHAKKIEAAAWVRAEGMALTLNAVMHRQNLDELPRIVEMAVEMGAQRLEVAHVQYYGWALKNRAALMPTLAQLDEATRIVEEAQARLSGVLAIDYVIPDYYAVRPKTCMGGWGRQFFNISPSGKVLPCHAAETITGLRFDSVREAPLAEIWQRSEALNLYRGTGWMQEPCRSCIHAEEDFGGCRCQAFALAGDAAATDPACAKSPLHAQLFSLAGAEAEAGADRFLYRNFSGGTPEG” the “soluble on expression in E. coli” value was “not soluble”.
For “KQATMKNAALKQLTKDADEILHLIKVQLDNLTLPSCPLYEEVLDTQMFGLQKEVDFAVKLGLVDREDGKQIMLRLEKELSKLHEAFTLV”, the “soluble on expression in E. coli” value was “not soluble”.
For “SGIIKMAIRFDRRAYPPQITPKMCLLEWCRREKLPQPVYETVQRTIDRMFCSVVTVAEQKYQSTLWDKSKKLAEQTAAIVCLRSQGLPEGRLGEESPSLNKRKREAPDQDPGGPR”, the “soluble on expression in E. coli” value was “soluble”.
